B1: 2'F-CU-#06 (ssRNA)
RNA: GGGACGCUCACGUACGCUCAUACACUGCACGCUCCGCUUUGAACAUCAAUGGAGGCCCUGUCAGUGCCUGGACGUGCAGU
modifications: 2'-F on all C and U
B2: 2'F-C-#06 (ssRNA)
RNA: B1 RNA
modifications: 2'-F on all C
B3: 2'F-U-#06 (ssRNA)
RNA: B1 RNA
modifications: 2'-F on all U
B4: 2'F-CU-#80 (ssRNA)
RNA: GGGACGCUCACGUACGCUCACAUCUGAAUUUAAGCCACGUAGAACCAGGCCCUCCACGCGUCAGUGCCUGGACGUGCAGU
modifications: 2'-F on all C and U
B5: 2'F-C-#80 (ssRNA)
RNA: B4 RNA
modifications: 2'-F on all C
B6: 2'F-U-#80 (ssRNA)
RNA: B4 RNA
modifications: 2'-F on all U
B7: 2'F-CU-R4_9068 (ssRNA)
RNA: GGGACGCUCACGUACGCUCAUGAUAUUUAAAUUUGGCCGCGUUUAAAACAUCCCCUACGAUCAGUGCCUGGACGUGCAGU
modifications: 2'-F on all C and U

Target: T1, His-tagged HMGB1 (UniProt P09429 P09429:1-215)
Test: SPR; 160 nM protein
Details: tags: N-terminal His-tag
Procedure: (§1) The ability of each of the aforementioned RNA aptamers to bind to HMGB1 in which His-tag was added to the N-terminus (His-tag-added HMGB1) was examined. For the analysis of the aforementioned binding ability, a BIACORE (registered trademark) X (manufactured by GE Healthcare) was used according to its instruction manual.
(§2) First, a sensor chip (trade name: Sensor Chip SA, manufactured by GE Heathcare) specially made for a BIACORE was set on the aforementioned BLACORE (registered trademark) X. Biotinylate deoxythymidine (5 μmol/L) was injected into the flow cell 2 of the aforementioned sensor chip using a running buffer and subjected to binding until the signal intensity (RU: resonance unit) reached about 1000 RU. For the aforementioned biotinylated deoxythymidine, 20-base-long deoxythymidine in which the 5′ end was biotinylated was used. Then, 10 μg/mL of an RNA aptamer was injected at a flow rate of 20 μL/min for 1 min into the aforementioned flow cells 1 and 2 of the aforementioned chip using a running buffer and subjected to binding until the signal intensity reached about 1000 RU. Next, […] for 30 sec using the aforementioned running buffer, and under the same conditions the aforementioned running buffer was allowed to flow continuously for washing. Simultaneously with the injection of the aforementioned His-tag-added HMGB1 and washing with the aforementioned running buffer, signal intensity was measured. The aforementioned running buffer was composed of 20 mmol/L of HEPES, 500 mmol/L of NaCl, 0.1 mmol/L of MgCl₂, and 0.1% Triton X-100 (registered trademark), with the pH thereof being 7.2. As a blocking agent for suppressing nonspecific binding, tRNA was used in a concentration of 1 mg/mL. In a comparative example, signal intensity was measured in the same manner except that the aforementioned comparative example RNA was used in place of the aforementioned example RNA aptamers.

T1 sequence (P09429 whole entry, one chain of several): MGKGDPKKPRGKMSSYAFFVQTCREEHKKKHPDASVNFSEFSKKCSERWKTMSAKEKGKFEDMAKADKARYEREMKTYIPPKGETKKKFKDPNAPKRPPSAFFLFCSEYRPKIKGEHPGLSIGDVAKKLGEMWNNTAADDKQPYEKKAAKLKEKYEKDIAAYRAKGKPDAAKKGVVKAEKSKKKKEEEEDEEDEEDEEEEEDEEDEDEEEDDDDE

Binding result, binds:
GGGUAAGACACGUAGCACCAGUGUGCCUGGACGUGCAGU (ssRNA) [R8c6_1-25-S6]
GGGUAAGCACGUAGCACCAGUGUGCCUGGACGUGCAGU (ssRNA) [R8c6_1-25-S6A]
GGGUAAGACACGUAGCACCGUGUGCCGGACGUGCAGU (ssRNA) [R8c6_1-25-S6A2]
GGGUAAGACACGUAGCACCAGUGUGCCUGGACGUGCGU (ssRNA) [R8c6_1-25-S6A3]
GGGUAAGACACGUAGACCAGUGUGCCUGGACGUGCAGU (ssRNA) [R8c6_1-25-S6C]
GGGUAAGACACGUAGCACCAGUGUGCCUGGAGUGCAGU (ssRNA) [R8c6_1-25-S6C2]
GGGUAAGACACGUAGCACCAGUGCCUGGACGUGCAGU (ssRNA) [R8c6_1-25-S8]
GGGAAGACACGUAGCACCAGUGUGCCUGGACGUGCAGU (ssRNA) [R8c6_1-26-S6]
GGGAGACACGUAGCACCAGUGUGCCUGGACGUGCAGU (ssRNA) [R8c6_1-27-S6]

Target: T1, His-tagged HMGB1
Test: SPR; 150 nM protein
Details: tags: N-terminal His-tag
Procedure: as §1, §2

Binding result, binds:
GGGACAGUAAGACACGUAGCACCAGUGUGCCUGGACGUGCAGU (ssRNA) [R8c6_1-21-S6]
GGGCAGUAAGACACGUAGCACCAGUGUGCCUGGACGUGCAGU (ssRNA) [R8c6_1-22-S6]
GGGAGUAAGACACGUAGCACCAGUGUGCCUGGACGUGCAGU (ssRNA) [R8c6_1-23-S6]
GGGGUAAGACACGUAGCACCAGUGUGCCUGGACGUGCAGU (ssRNA) [R8c6_1-24-S6]
GGGACAGUAAGACACGUAGCACCAGUGCCUGGACGUGCAGU (ssRNA) [R8c6_1-21-S8]
GGGCAGUAAGACACGUAGCACCAGUGCCUGGACGUGCAGU (ssRNA) [R8c6_1-22-S8]
GGGAGUAAGACACGUAGCACCAGUGCCUGGACGUGCAGU (ssRNA) [R8c6_1-23-S8]
GGGGUAAGACACGUAGCACCAGUGCCUGGACGUGCAGU (ssRNA) [R8c6_1-24-S8]
GGGUAAGACACGUAGAACCAGUGACUGGAAGUGCAGU (ssRNA) [R8c6_1-25-S8CA]
GGGUAAGCACGUAGCACCAGUGUGCCUGGACGUGCAGU (ssRNA, 2'-F on all C and U) [2'F-R8c6_1-25-S6A]
GGGUAAGACACGUAGCACCGUGUGCCGGACGUGCAGU (ssRNA, 2'-F on all C and U) [2'F-R8c6_1-25-S6A2]
GGGUAAGACACGUAGACCAGUGUGCCUGGACGUGCAGU (ssRNA, 2'-F on all C and U) [2'F-R8c6_1-25-S6C]
GGGUAAGACACGUAGCACCAGUGUGCCUGGAGUGCAGU (ssRNA, 2'-F on all C and U) [2'F-R8c6_1-25-S6C2]
GGGCAGUAAGACACGUAGCACCAGUGUGCCUGGACGUGCAGU (ssRNA, 2'-F on all C and U) [2'F-R8c6_1-22-S6]
GGGAGUAAGACACGUAGCACCAGUGUGCCUGGACGUGCAGU (ssRNA, 2'-F on all C and U) [2'F-R8c6_1-23-S6]
GGGGUAAGACACGUAGCACCAGUGUGCCUGGACGUGCAGU (ssRNA, 2'-F on all C and U) [2'F-R8c6_1-24-S6]
GGGUAAGACACGUAGCACCAGUGUGCCUGGACGUGCAGU (ssRNA, 2'-F on all C and U) [2'F-R8c6_1-25-S6]
GGGAAGACACGUAGCACCAGUGUGCCUGGACGUGCAGU (ssRNA, 2'-F on all C and U) [2'F-R8c6_1-26-S6]
GGGAGACACGUAGCACCAGUGUGCCUGGACGUGCAGU (ssRNA, 2'-F on all C and U) [2'F-R8c6_1-27-S6]
GGGCAGUAAGACACGUAGCACCAGUGCCUGGACGUGCAGU (ssRNA, 2'-F on all C and U) [2'F-R8c6_1-22-S8]
GGGAGUAAGACACGUAGCACCAGUGCCUGGACGUGCAGU (ssRNA, 2'-F on all C and U) [2'F-R8c6_1-23-S8]
GGGGUAAGACACGUAGCACCAGUGCCUGGACGUGCAGU (ssRNA, 2'-F on all C and U) [2'F-R8c6_1-24-S8]
GGGUAAGACACGUAGCACCAGUGCCUGGACGUGCAGU (ssRNA, 2'-F on all C and U) [2'F-R8c6_1-25-S8]
GGGUAAGACACGUAGAACCAGUGACUGGAAGUGCAGU (ssRNA, 2'-F on all C and U) [2'F-R8c6_1-25-S8CA]

Target: T1, His-tagged HMGB1
Test: SPR; 200 nM protein, 150 mM NaCl; above unmodified 40N
Details: tags: N-terminal His-tag
Procedure: First, a sensor chip (trade name: Sensor Chip SA, manufactured by GE Heathcare) specially made for a BIACORE was set on the aforementioned BLACORE (registered trademark) X. Biotinylate deoxythymidine (5 μmol/L) was injected into the flow cell 2 of the aforementioned sensor chip using a running buffer and subjected to binding until the signal intensity (RU: resonance unit) reached about 1000 RU. For the aforementioned biotinylated deoxythymidine, 20-base-long deoxythymidine in which the 5′ end was biotinylated was used. Then, 10 μg/mL of an RNA aptamer was injected at a flow rate of 20 μL/min for 1 min into the aforementioned flow cells 1 and 2 of the aforementioned chip using a running buffer and subjected to binding until the signal intensity reached about 1000 RU. Next, 675 nmol/L of the aforementioned His-tag-added HMGB1 was injected at a flow rate of 20 μL/min for 30 sec using the aforementioned running buffer, and under the same conditions the aforementioned running buffer was allowed to flow continuously for washing. Simultaneously with the injection of the aforementioned His-tag-added HMGB1 and washing with the aforementioned running buffer, signal intensity was measured. The aforementioned running buffer was composed of 20 mmol/L of HEPES, 500 mmol/L of NaCl, 0.1 mmol/L of MgCl₂, and 0.1% Triton X-100 (registered trademark), with the pH thereof being 7.2. As a blocking agent for suppressing nonspecific binding, tRNA was used in a concentration of 1 mg/mL. In a comparative example, signal intensity was measured in the same manner except that the aforementioned comparative example RNA was used in place of the aforementioned example RNA aptamers.
An analysis of ability to bind to the aforementioned His-tag-added HMGB1 (manufactured by Sigma) was carried out in the same manner as in (2) above of the aforementioned Example 1 except that the aforementioned fluorinated RNA aptamers were used, the concentration of the aforementioned His-tag-added HMGB1 was 200 nmol/L, the concentration of NaCl in the aforementioned running buffer was 150 mmol/L, and the injection time of the aforementioned His-tag-added HMGB1 was 60 seconds. Also, an analysis was carried out in the same manner on unmodified R8c6_{—}1 that was not fluorinated.

Binding result, binds:
B1
B2
B3
B4
B5
B6
B7
